“Also recorded” adds a separate entry of the source.
Tests used:
[1] = tested on: O-glycosylated α-Her2 heavy chain (Hc); format: cell-based, Pichia pastoris
O-glycans of α-Her2 = test: O-mannose chain length analysis by HPAEC-PAD of O-glycans released from α-Her2 from fermented MNS1 strains; format: cell-based, Pichia pastoris

Molecule | α-Her2 Hc migration on Western blot relative to non-transformed control [1] | O-Man1 (%) (O-glycans of α-Her2) | effect on percentage of O-Man1 / O-mannose chain length relative to no MNS1 control (O-glycans of α-Her2)
Aspergillus oryzae: A. oryzae α-1,2-mannosidase, GenBank BAE57653, SEQ ID NO: 14 (protein, listed as Aspergillus oryzae) YPQFKFEQRVARSNSSESRANAVKEAFVHAWDGYMQYAYPHDELHPISNGVGDSRNGWGASAVDALSTAVIMGNETIVNQILDHIATIDYSKTDDQVSLFETTIRYLGGMLSGYDLLKGPASNLVKDQAKVKTLLDQSQNLADVLKFAFDTPSGIPYNNINITSHGNDGATTNGLAVTGTLVLEWTRLSDLTGDTEYAQLSQKAEDYLLNPSPKSAEPFEGLVGSHINISNGAFADGQVSWNGGDDSFYEYLIKMYVYDPKRFSTYGDRWVKAAESSIKHLASHPEKRPDLTFLASYNDGQYGLSSQHLTCFDGGSFLLGGTVLDRDDFIQFGLDLVKGCHETYNQTLTGIGPESFGWDPKNVPSDQKELYERAGFYISSGAYILRPEVIESFYYAWRITGQEIYREWVWNAFVNINKYCRTDSGFAGLTNVNAANGGGRYDNQESFLFAEVLKYVYLTFAPDNEWQVQRGKGNKFVYNTEAHPVRVAA | migration is increased; also recorded: faster relative to the non-transformed control but not as fast | 89 | reduced O-mannose chain length, but to a lesser extent
Chaetomiun globosum: C. globosum α-1,2-mannosidase, GenBank XP_001227052, SEQ ID NO: 16 (protein, listed as Chaetomium globosum) LPRLEDGGRPGAGREDSFWSKVPLHYPPDSIRPLPTGLPVQYPPIQTTTFPAEEDQAARGRRVQRQKAVRDVFAKCWASYRKLAWGADELTPVSGGRKDPFGGWSATLVDSLDTLWIMDMKTEFDEAVAAADGINFTHTAVDRVNVFETNIRYLGGFLAAFDLSGDKRLLGKATEVGDMLYKAFDTPSHMPITRWDMRAAIKGAKQVASEGLIAEVGTLSMEFTRLSMLTGDPKWFDLAQRITDDMAAQQDSTAVPGLWPLKVNGQKRIFNSGPDFTLGAMADSAYEYLPKMSAMMGGQLPMYQTMYEKAMDAATKHNLFRPMTPTNEDILIAGDVHARENGMEFEARGQHLTCFLGGLMALGGRLYGREKDVIAGRKLTDGCVWTYKAFPQGIMPESFVTVSCPAGDACEWDEGVWKKEVLRKANKDTDGPESNAEAEVIIKKQRLPQGFTAVFDRAYLLRPEAIESVFVLYRVTGKVELLEAAWDMFTAIDKATSTDLANSAIRDVTSTDKPEAKDSMESFWMAETLKYFYLIFSDPELINLNEYVLNTEAHPFRRLLPSP | faster relative to the non-transformed control but not as fast | 89 | reduced O-mannose chain length, but to a lesser extent
Aspergillus saitoi: A. saitoi α-1,2-mannosidase, GenBank BAA08634, SEQ ID NO: 12 (protein, listed as Aspergillus saitoi) YPHFGSSQPVLHSSSDTTQSRADAIKAAFSHAWDGYLQYAFPHDELHPVSNGYGDSRNGWGASAVDALSTAVIMRNATIVNQILDHVGKIDYSKTNTTVSLFETTIRYLGGMLSGYDLLKGPVSDLVQNSSKIDVLLTQSKNLADVLKFAFDTPSGVPYNNLNITSGGNDGAKTNGLAVTGTLALEWTRLSDLTGDTTYADLSQKAESYLLNPQPKSAEPFPGLVGSNINISNGQFTDAQVSWNGGDDSYYEYLIKMYVYDPKRFGLYKDRWVAAAQSTMQHLASHPSSRPDLTFLASYNNGTLGLSSQHLTCFDGGSFLLGGTVLNRTDFINFGLDLVSGCHDTYNSTLTGIGPESFSWDTSDIPSSQQSLYEKAGFYITSGAYILRPEVIESFYYAWRVTGQETYRDWIWSAFSAVNDYCRTSSGFSGLTDVNAANGGSRYDNQESFLFAEVMKYSYMAFAEDAAWQVQPGSGNQFVFNTEAHPVRVSST | faster relative to the non-transformed control but not as fast | 86 | reduced O-mannose chain length, but to a lesser extent
Penicillium citrinum: Penicillium citrinum α-1,2-mannosidase, GenBank BAA08275, SEQ ID NO: 8 (protein, listed as Penicillium citrinum) HPYGETEAVLRSEPKSNQAKADAVKEAFQHAWNGYMKYAFPHDELTPVSNGHADSRNGWGASAVDALSTAVIMGKADVVNAILEHVADIDFSKTSDTVSLFETTIRYLAGMLSGYDLLQGPAKNLVDNQDLIDGLLDQSRNLADVLKFAFDTPSGVPYNNINITSHGNDGATTNGLAVTGTLVLEWTRLSDLTGDEEYAKLSQKAESYLLKPQPSSSEPFPGLVGSSININDGQFADSRVSWNGGDDSFYEYLIKMYVYDPKRFETYKDRWVLAAESTIKHLKSHPKSRPDLTFLSSYSNRNYDLSSQHLTCFDGGSFLLGGTVLDRQDFIDFGLELVDGCEATYNSTLTKIGPDSWGWDPKKVPSDQKEFYEKAGFYISSGSYVLRPEVIESFYYAHRVTGKEIYRDWVWNAFVAINSTCRTDSGFAAVSDVNKANGGSKYDNQESFLFAEVMKYSYLAHSEDAAWQVQKGGKNTFVYNTEAHPISVARN | – | 83 | reduced O-mannose chain length, but to a lesser extent
